# From the supplement of paper PMC9732359
# ± gives the uncertainty stated by the source.
# Assay: protein stability index of a GFP-peptide fusion (yeast GPS) (PSI 1-4); higher = more stable; sorted into four equal gates, so the index is relative within each strain
# Outline: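 Plasmids in a pooled yeast library fused tiled 17-residue yeast protein peptides downstream of GFP and also expressed Cherry. Mid-log cultures grown without leucine were sorted into four equal gates by GFP/Cherry fluorescence ratio. Each gate's plasmids were PCR-amplified and Illumina-sequenced, and reads were matched to strains by barcodes. The protein stability index is derived by multiplying each gate's read frequency by its gate number and summing the results.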
Sequence,protein stability index (doa10∆),protein stability index (pdr5∆),protein stability index (san1∆),protein stability index (ubr1∆)
FAALSDSYGQGSMTKTW [SSN2],3.17 ± 0.094,3.34 ± 0.088,3.23 ± 0.1,3.2 ± 0.063
QEEGSFEFGNMKATSNT [FAS2],3.28 ± 0.05,3.38 ± 0.07,3.14 ± 0.056,3.17 ± 0.042
DPVEGNLEFDSTNHPDY [SRP14],2.9 ± 0.066,2.79 ± 0.068,3.09 ± 0.049,2.95 ± 0.051
VETILSGKARICIVGGY [FAS2],1.33 ± 0.24,1.32 ± 0.17,1.23 ± 0.16,1.14 ± 0.13
KGTNGKKALKVRTSATF [RPL25],3.15 ± 0.13,3.03 ± 0.12,3.06 ± 0.13,3.3 ± 0.068
DATYDSALELVGQLNKV [RPN6],3.11 ± 0.16,3.1 ± 0.11,3.27 ± 0.21,2.72 ± 0.28
AQAFVELENSSPELKAE [RPS7A],3.08 ± 0.23,,,
IDNLESYAGISTDKLVQ [SIR2],2.9 ± 0.057,2.93 ± 0.09,2.94 ± 0.068,3.08 ± 0.044
NTNNNDTIATSATPNAA [GAL11],2.7 ± 0.046,2.88 ± 0.046,2.59 ± 0.044,2.74 ± 0.043
PTDQNNQSNLNGGNNTQ [SNF2],2.46 ± 0.083,3.03 ± 0.072,3.13 ± 0.079,3.01 ± 0.063
KNAANTEGHKGHEELKR [ISW2],3.43 ± 0.086,3.16 ± 0.081,3.2 ± 0.098,3.35 ± 0.061
NIWLNNKIINWEISNPD [NUT1],2.48 ± 0.076,2.56 ± 0.057,2.71 ± 0.11,2.56 ± 0.077
VSSSSRHHRKTEKEEDA [ISW2],2.66 ± 0.064,2.81 ± 0.057,2.05 ± 0.058,2.86 ± 0.054
KNKSGKIFVETKFSKLI [FAS1],2.33 ± 0.072,2.69 ± 0.076,2.3 ± 0.16,1.84 ± 0.077
AELELVDSLDPFSEGVT [SMC4],2.84 ± 0.072,2.64 ± 0.061,2.75 ± 0.12,3.11 ± 0.054
QDSMSKGTGEESNDRIN [YGR119C/NUP57],3.33 ± 0.098,3.22 ± 0.15,3.23 ± 0.09,3.38 ± 0.057
GQLVELYVPRKCSATNR [RPS21A],2.46 ± 0.2,1.32 ± 0.19,1.13 ± 0.22,1.38 ± 0.069
PQIAQLPLATQQQVLNK [SNF5],1.94 ± 0.074,2.3 ± 0.075,2 ± 0.13,2.17 ± 0.068
KLKFFPSGEALISSSQD [RPN14],2.92 ± 0.23,,,
ISEEETTVKPLFQNVPE [YAR002W/NUP60],3.01 ± 0.069,3.25 ± 0.068,3.23 ± 0.043,3.01 ± 0.058
PNGSGKSNVIDSMLFVF [SMC4],2.87 ± 0.048,2.87 ± 0.051,2.68 ± 0.055,2.96 ± 0.037
KLVTNVVDPKTSIEKSS [YML103C/NUP188],2.31 ± 0.056,2.71 ± 0.049,2.52 ± 0.069,2.62 ± 0.051
VEFCRNINSTDKSIDTS [YML103C/NUP188],3.08 ± 0.11,2.93 ± 0.091,3.39 ± 0.097,3.12 ± 0.053
YSLLLASKGIDRLSLQD [ECM29],2.45 ± 0.2,3.23 ± 0.16,,2.83 ± 0.11
LERRELEGTRVSLEERT [SMC4],3.4 ± 0.096,3.35 ± 0.082,3.29 ± 0.063,3.36 ± 0.1
KRANNIRKFFGLSKEDD [RPS6A],3.39 ± 0.17,3.22 ± 0.11,2.98 ± 0.15,3.56 ± 0.11

Sequence,protein stability index (doa10∆),protein stability index (pdr5∆),protein stability index (san1∆),protein stability index (ubr1∆)
DEDLHEFQIEDAIWSLV [SRB8],3.4 ± 0.13,2.96 ± 0.086,2.88 ± 0.14,3.3 ± 0.26
RGFNNQIMQLKKICNHP [SNF2],3.13 ± 0.066,3.15 ± 0.067,3.07 ± 0.049,3.2 ± 0.06
REQASKSKKSWLNRLNN [YMR153W/NUP53],2.31 ± 0.11,2.45 ± 0.099,1.62 ± 0.15,2.92 ± 0.063
SFEKLYEGMKLGNHAIT [YMR129W/POM152],2.85 ± 0.17,1.47 ± 0.27,1.85 ± 0.24,2 ± 0.15
YDKLPAGQNATVAVMSY [RET1],1.17 ± 0.046,1.31 ± 0.046,1.33 ± 0.13,1.18 ± 0.048
KSHNAHVRCGTAFALGI [RPN2],1.72 ± 0.27,2.41 ± 0.1,2.18 ± 0.14,1.8 ± 0.075
TNNTIRYNAKRRNWRRT [RPL39],,3.02 ± 0.22,,3.58 ± 0.14
SRIVEIFALCIYNSTDS [YML103C/NUP188],1.2 ± 0.093,1.21 ± 0.086,1.52 ± 0.11,1.2 ± 0.057
RLFNNVKIHSQESLLSR [SRP72],2.61 ± 0.076,2 ± 0.06,2.44 ± 0.085,2.18 ± 0.044
PFNFTVTLFQMAILLLY [CDC53],1.65 ± 0.045,1.59 ± 0.045,1.41 ± 0.11,1.63 ± 0.039
SSLPPGEILLPDIADIP [SNF5],3.12 ± 0.074,3.25 ± 0.063,3.19 ± 0.076,3.25 ± 0.048
EAAAKEKDELDNIEVSK [QCR7],3.18 ± 0.098,3.41 ± 0.079,3.29 ± 0.084,3.22 ± 0.055
PRLDTSKEFSAYVSGLF [YJR042W/NUP85],2.33 ± 0.13,2.08 ± 0.082,2.05 ± 0.13,3.12 ± 0.13
PELLDSLAILGMNLLSN [SWI1],2.1 ± 0.061,2.21 ± 0.073,2.05 ± 0.079,1.92 ± 0.066
NLQKIDKDSEELDSKTR [MED4],2.73 ± 0.091,2.98 ± 0.071,2.94 ± 0.078,3.09 ± 0.053
DSKDGTTLNIKVEKRVL [SMB1],,3.66 ± 0.22,,3.45 ± 0.27
GKDRIAINVFPEGYKAK [RPO31],2.37 ± 0.061,2.28 ± 0.079,2.5 ± 0.07,2.68 ± 0.072
DVAFLKTAYSIYLSQNE [RPN1],2.25 ± 0.052,2.51 ± 0.056,2.16 ± 0.062,2.64 ± 0.058
ATVLSRKILKKTFKNPK [RPN5],2.4 ± 0.044,2.67 ± 0.047,2.55 ± 0.057,2.87 ± 0.037
PIQSKVFHAAFEGDSNM [BRR2],2.91 ± 0.055,3.02 ± 0.051,2.92 ± 0.063,2.9 ± 0.032
LKDIEARIKEKAGVKES [RPT1],2.38 ± 0.27,3.42 ± 0.19,3.22 ± 0.11,3.31 ± 0.081
GSVELSTGDYTFTIQLL [YML103C/NUP188],2.05 ± 0.084,2.41 ± 0.072,1.89 ± 0.11,2.17 ± 0.051
DAIYRELTKNPNSNVEL [SMC1],3.31 ± 0.3,2.91 ± 0.15,3.33 ± 0.088,3.38 ± 0.13
GLPVGAIMNCADNSGAR [RPL23A],1.91 ± 0.053,2.28 ± 0.06,1.63 ± 0.068,1.83 ± 0.055
DAMIAQRSKKIQPTAKV [DIS3],1.83 ± 0.082,1.99 ± 0.084,1.59 ± 0.067,1.69 ± 0.068
FNNEAPPQTRKFQPPPG [SMB1],2.86 ± 0.1,3.11 ± 0.1,3.01 ± 0.075,3.13 ± 0.085
